According to patent US20150337051A1 (MORPHOTEK, published 2015):

Tests used:
[1] = target: T1, recombinant CHO TEM-1 Fc fusion protein (UniProt Q9HCU0); assay: ECL sandwich, competition: biotin-9G5 capture, sulfo-TAG-15F8 detection; MORAb-004 spike 50 µg/mL, TEM-1-Fc QC 2 ng/mL; recovery at 0 µg/mL MORAb-004: 106
T1 sequence (looked up): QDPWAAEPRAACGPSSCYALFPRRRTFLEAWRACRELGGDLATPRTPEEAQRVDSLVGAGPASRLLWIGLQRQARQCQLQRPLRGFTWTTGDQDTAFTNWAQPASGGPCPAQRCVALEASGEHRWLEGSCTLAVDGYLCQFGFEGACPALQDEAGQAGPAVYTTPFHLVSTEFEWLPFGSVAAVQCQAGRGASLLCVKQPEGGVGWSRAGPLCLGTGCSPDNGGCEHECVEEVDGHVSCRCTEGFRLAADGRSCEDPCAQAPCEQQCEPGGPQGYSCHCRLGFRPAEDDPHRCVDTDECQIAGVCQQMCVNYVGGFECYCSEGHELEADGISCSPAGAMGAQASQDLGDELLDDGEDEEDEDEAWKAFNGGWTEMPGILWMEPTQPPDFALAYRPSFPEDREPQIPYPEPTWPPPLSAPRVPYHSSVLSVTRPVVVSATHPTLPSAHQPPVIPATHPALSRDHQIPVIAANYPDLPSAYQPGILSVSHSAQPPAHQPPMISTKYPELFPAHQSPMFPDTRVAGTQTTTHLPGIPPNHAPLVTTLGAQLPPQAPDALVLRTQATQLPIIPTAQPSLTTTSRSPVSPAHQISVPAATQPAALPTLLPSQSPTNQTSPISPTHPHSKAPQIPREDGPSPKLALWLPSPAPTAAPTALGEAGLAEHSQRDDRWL

[2] = target: T1, recombinant CHO TEM-1 Fc fusion protein; assay: ECL sandwich, competition: biotin-9G5 capture, sulfo-TAG-15F8 detection; MORAb-004 spike 25 µg/mL, TEM-1-Fc QC 10 ng/mL; recovery at 0 µg/mL MORAb-004: 105
[3] = target: T1, recombinant CHO TEM-1 Fc fusion protein; assay: ECL sandwich, competition: biotin-9G5 capture, sulfo-TAG-15F8 detection; MORAb-004 spike 50 µg/mL, TEM-1-Fc QC 10 ng/mL; recovery at 0 µg/mL MORAb-004: 105
[4] = target: T1, recombinant CHO TEM-1 Fc fusion protein; assay: ECL sandwich, competition: biotin-9G5 capture, sulfo-TAG-15F8 detection; MORAb-004 spike 50 µg/mL, TEM-1-Fc QC 50 ng/mL; recovery at 0 µg/mL MORAb-004: 104
[5] = target: T1, recombinant CHO TEM-1 Fc fusion protein; assay: ECL sandwich, competition: biotin-9G5 capture, sulfo-TAG-15F8 detection; MORAb-004 spike 25 µg/mL, TEM-1-Fc QC 0.08 ng/mL; recovery at 0 µg/mL MORAb-004: 114
[6] = target: T1, recombinant CHO TEM-1 Fc fusion protein; assay: ECL sandwich, competition: biotin-9G5 capture, sulfo-TAG-15F8 detection; MORAb-004 spike 6.25 µg/mL, TEM-1-Fc QC 10 ng/mL; recovery at 0 µg/mL MORAb-004: 105
[7] = target: T1, recombinant CHO TEM-1 Fc fusion protein; assay: ECL sandwich, competition: biotin-9G5 capture, sulfo-TAG-15F8 detection; MORAb-004 spike 6.25 µg/mL, TEM-1-Fc QC 50 ng/mL; recovery at 0 µg/mL MORAb-004: 104
[8] = target: T1, recombinant CHO TEM-1 Fc fusion protein; assay: ECL sandwich, competition: biotin-9G5 capture, sulfo-TAG-15F8 detection; MORAb-004 spike 1.5625 µg/mL, TEM-1-Fc QC 2 ng/mL; recovery at 0 µg/mL MORAb-004: 106
[9] = target: T1, recombinant CHO TEM-1 Fc fusion protein; assay: ECL sandwich, competition: biotin-9G5 capture, sulfo-TAG-15F8 detection; MORAb-004 spike 3.125 µg/mL, TEM-1-Fc QC 50 ng/mL; recovery at 0 µg/mL MORAb-004: 104
[10] = target: T1, recombinant CHO TEM-1 Fc fusion protein; assay: ECL sandwich, competition: biotin-9G5 capture, sulfo-TAG-15F8 detection; MORAb-004 spike 6.25 µg/mL, TEM-1-Fc QC 0.4 ng/mL; recovery at 0 µg/mL MORAb-004: 109
[11] = target: T1, recombinant CHO TEM-1 Fc fusion protein; assay: ECL sandwich, competition: biotin-9G5 capture, sulfo-TAG-15F8 detection; MORAb-004 spike 1.5625 µg/mL, TEM-1-Fc QC 10 ng/mL; recovery at 0 µg/mL MORAb-004: 105
[12] = target: T1, recombinant CHO TEM-1 Fc fusion protein; assay: ECL sandwich, competition: biotin-9G5 capture, sulfo-TAG-15F8 detection; MORAb-004 spike 12.5 µg/mL, TEM-1-Fc QC 0.08 ng/mL; recovery at 0 µg/mL MORAb-004: 114
[13] = target: T1, recombinant CHO TEM-1 Fc fusion protein; assay: ECL sandwich, competition: biotin-9G5 capture, sulfo-TAG-15F8 detection; MORAb-004 spike 1.5625 µg/mL, TEM-1-Fc QC 0.4 ng/mL; recovery at 0 µg/mL MORAb-004: 109
[14] = target: T1, recombinant CHO TEM-1 Fc fusion protein; assay: ECL sandwich, competition: biotin-9G5 capture, sulfo-TAG-15F8 detection; MORAb-004 spike 3.125 µg/mL, TEM-1-Fc QC 0.08 ng/mL; recovery at 0 µg/mL MORAb-004: 114
[15] = target: T1, recombinant CHO TEM-1 Fc fusion protein; assay: ECL sandwich, competition: biotin-9G5 capture, sulfo-TAG-15F8 detection; MORAb-004 spike 0.78125 µg/mL, TEM-1-Fc QC 0.08 ng/mL; recovery at 0 µg/mL MORAb-004: 114

B1: MORAb-004 (antibody, INN chains, looked up, V domains shown)
VH: QVQLQESGPGLVRPSQTLSLTCTASGYTFTDYVIHWVKQPPGRGLEWIGYINPYDDDTTYNQKFKGRVTMLVDTSSNTAYLRLSSVTAEDTAVYYCARRGNSYDGYFDYSMDYWGSGTPVTVSS
VL: DIQMTQSPSSLSASVGDRVTITCRASQNVGTAVAWLQQTPGKAPKLLIYSASNRYTGVPSRFSGSGSGTDYTFTISSLQPEDIATYYCQQYTNYPMYTFGQGTKVQIK
% Recovery of TEM-1 QCs spiked with MORAb-004 [1]: 89.9% | % Recovery of TEM-1 QCs spiked with MORAb-004 [2]: 91.3% | % Recovery of TEM-1 QCs spiked with MORAb-004 [3]: 87% | % Recovery of TEM-1 QCs spiked with MORAb-004 [4]: 93.1% | % Recovery of TEM-1 QCs spiked with MORAb-004 [5]: 96% | % Recovery of TEM-1 QCs spiked with MORAb-004 [6]: 94.4% | % Recovery of TEM-1 QCs spiked with MORAb-004 [7]: 95.7% | % Recovery of TEM-1 QCs spiked with MORAb-004 [8]: 98.9% | % Recovery of TEM-1 QCs spiked with MORAb-004 [9]: 94.5% | % Recovery of TEM-1 QCs spiked with MORAb-004 [10]: 98% | % Recovery of TEM-1 QCs spiked with MORAb-004 [11]: 97.7% | % Recovery of TEM-1 QCs spiked with MORAb-004 [12]: 99.4% | % Recovery of TEM-1 QCs spiked with MORAb-004 [13]: 102% | % Recovery of TEM-1 QCs spiked with MORAb-004 [14]: 103% | % Recovery of TEM-1 QCs spiked with MORAb-004 [15]: 107%
